Test results reported in IntAct's records for PubMed 22230954.

B1: Histone deacetylase 3 (Homo sapiens), O15379 (parent)
chain: MAKTVAYFYDPDVGNFHYGAGHPMKPHRLALTHSLVLHYGLYKKMIVFKPYQASQHDMCRFHSEDYIDFLQRVSPTNMQGFTKSLNAFNVGDDCPVFPGLFEFCSRYTGASLQGATQLNNKICDIAINWAGGLHHAKKFEASGFCYVNDIVIGILELLKYHPRVLYIDIDIHHGDGVQEAFYLTDRVMTVSFHKYGNYFFPGTGDMYEVGAESGRYYCLNVPLRDGIDDQSYKHLFQPVINQVVDFYQPTCIVLQCGADSLGCDRLGCFNLSIRGHGECVEYVKSFNIPLLVLGGGGYTVRNVARCWTYETSLLVEEAISEELPYSEYFEYFAPDFTLHPDVSTRIENQNSRQYLDQIRQTIFENLKMLNHAPSVQIHDVPADLLTYDRTDEADAEERGPEENYSRPEAPNEFYDGDHDNDKESDVEI

Variants of: B1
Conditions: with ncor2_human NCOR2, Q9Y618
Chain of ncor2_human NCOR2, Q9Y618 (Q9Y618 whole entry): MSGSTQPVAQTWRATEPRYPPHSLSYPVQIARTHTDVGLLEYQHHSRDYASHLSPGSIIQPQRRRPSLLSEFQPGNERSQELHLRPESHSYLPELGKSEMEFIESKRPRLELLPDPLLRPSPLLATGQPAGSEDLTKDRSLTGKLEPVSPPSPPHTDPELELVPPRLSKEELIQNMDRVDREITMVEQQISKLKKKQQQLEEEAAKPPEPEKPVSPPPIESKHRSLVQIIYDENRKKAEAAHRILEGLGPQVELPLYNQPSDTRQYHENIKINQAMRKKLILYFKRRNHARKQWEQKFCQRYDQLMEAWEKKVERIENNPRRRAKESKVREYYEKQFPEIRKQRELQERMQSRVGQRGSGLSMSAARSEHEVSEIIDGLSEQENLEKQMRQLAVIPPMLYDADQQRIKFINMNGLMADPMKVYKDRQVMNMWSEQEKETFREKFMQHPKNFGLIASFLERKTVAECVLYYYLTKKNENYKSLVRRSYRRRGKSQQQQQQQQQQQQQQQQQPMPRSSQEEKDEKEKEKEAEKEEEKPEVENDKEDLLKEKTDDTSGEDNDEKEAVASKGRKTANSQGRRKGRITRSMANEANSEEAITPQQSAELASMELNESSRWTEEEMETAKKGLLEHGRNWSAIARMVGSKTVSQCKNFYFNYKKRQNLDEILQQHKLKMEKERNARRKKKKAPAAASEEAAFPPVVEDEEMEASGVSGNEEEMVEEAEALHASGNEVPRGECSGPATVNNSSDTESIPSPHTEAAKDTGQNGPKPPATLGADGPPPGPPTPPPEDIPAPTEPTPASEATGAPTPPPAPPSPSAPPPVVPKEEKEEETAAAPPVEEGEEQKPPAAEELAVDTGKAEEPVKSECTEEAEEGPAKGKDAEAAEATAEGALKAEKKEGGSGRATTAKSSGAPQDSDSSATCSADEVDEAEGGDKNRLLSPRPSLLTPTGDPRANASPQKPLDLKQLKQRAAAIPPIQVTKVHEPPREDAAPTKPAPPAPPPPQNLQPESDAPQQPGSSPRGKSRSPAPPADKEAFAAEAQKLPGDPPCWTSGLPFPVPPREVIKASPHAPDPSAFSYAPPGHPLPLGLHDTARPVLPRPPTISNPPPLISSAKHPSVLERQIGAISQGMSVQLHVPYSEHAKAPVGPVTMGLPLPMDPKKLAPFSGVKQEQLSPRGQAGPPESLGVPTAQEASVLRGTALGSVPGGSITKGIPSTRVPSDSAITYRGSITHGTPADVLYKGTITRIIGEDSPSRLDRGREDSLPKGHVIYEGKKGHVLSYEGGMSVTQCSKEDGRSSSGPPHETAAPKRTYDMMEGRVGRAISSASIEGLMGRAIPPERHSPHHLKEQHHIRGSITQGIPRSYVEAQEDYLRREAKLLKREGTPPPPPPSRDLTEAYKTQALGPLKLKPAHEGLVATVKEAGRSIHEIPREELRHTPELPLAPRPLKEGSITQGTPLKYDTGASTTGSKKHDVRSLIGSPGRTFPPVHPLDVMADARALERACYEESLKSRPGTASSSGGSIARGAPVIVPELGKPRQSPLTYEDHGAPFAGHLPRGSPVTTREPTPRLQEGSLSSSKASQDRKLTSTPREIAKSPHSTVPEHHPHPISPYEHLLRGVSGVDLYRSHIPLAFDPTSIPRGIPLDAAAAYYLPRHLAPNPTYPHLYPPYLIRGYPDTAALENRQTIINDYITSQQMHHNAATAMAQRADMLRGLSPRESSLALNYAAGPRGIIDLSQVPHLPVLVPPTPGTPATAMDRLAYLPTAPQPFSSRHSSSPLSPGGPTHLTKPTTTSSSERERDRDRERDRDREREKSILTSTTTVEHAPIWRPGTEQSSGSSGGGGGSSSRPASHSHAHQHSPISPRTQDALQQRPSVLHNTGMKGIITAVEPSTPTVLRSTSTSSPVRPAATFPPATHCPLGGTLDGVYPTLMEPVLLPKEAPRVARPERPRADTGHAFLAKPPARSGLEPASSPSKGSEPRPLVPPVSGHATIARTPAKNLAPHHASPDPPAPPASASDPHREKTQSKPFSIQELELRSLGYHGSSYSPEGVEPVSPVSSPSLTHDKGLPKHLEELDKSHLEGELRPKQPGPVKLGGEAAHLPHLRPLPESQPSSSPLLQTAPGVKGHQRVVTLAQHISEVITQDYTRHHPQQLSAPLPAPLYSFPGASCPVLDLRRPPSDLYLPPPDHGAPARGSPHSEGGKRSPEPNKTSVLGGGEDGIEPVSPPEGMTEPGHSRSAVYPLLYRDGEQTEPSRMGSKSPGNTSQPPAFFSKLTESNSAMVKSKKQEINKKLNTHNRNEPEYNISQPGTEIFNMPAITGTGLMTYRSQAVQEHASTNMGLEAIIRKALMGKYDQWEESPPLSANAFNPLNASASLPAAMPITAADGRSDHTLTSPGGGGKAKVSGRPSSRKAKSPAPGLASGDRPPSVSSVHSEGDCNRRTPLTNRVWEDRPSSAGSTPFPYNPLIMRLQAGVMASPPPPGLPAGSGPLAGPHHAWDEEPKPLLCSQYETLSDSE

| Variant | effect of a mutation on the interaction |
| --- | --- |
| R265P;L266M | disrupting interaction |
| H17C;G21A;K25I | disrupting interaction |
| H17C;G21A;K25I;R265P;L266M | disrupting interaction |
| R265P | disrupting interaction |

Variants of: B1
Conditions: with ncor2_human NCOR2, Q9Y618
Remark: another data set of the same source

| Variant | effect of a mutation on the interaction |
| --- | --- |
| H17C;G21A;K25I;R265P;L266M | disrupting interaction |
